# Molecular target: KREPA2 αH1 group mutant of the negatively charged glutamic and aspartic acid residues (to alanine) (T. brucei)
# Assay: pull-down
substance,measurement,value
kinetoplastid RNA editing ligase 1 (KREL1) full-length (51-469) (enzyme),decrease in binding efficiency against the wild type,75%
